Source: patent US20240409621A1

Columns and labels:
[1] = biological target: F protein of RSV type B strain 18537 (on the virus in the neutralization assay) (respiratory syncytial virus type B, strain 18537) (UniProt P13843); assay: cell-based or functional assay
[2] = biological target: F protein of RSV A2 (on the virus in the neutralization assay) (respiratory syncytial virus, A2 strain) (UniProt P03420); assay: cell-based or functional assay

With D25 (antibody) the IC50 of each RSV neutralizing antibody, 18537 [1] was 0.167 µg/mL and the IC50 of each RSV neutralizing antibody, RSV A2 [2] was 0.0222 µg/mL.
